These results are taken from publication PMC7911445.

Where two headings read alike, the source gives them in different places.

As for “β-catenin: 1-mM LiCl (GSK3β inhibitor) added to TMA/BL-treated cultures”, the localisation_or_trafficking entry runs as follows: (phosphorylation at S33) “increases”; (phosphorylation at S37) “increases”.
